According to article PMC6078464:

Molecular target: PEDV nsp15 (H241A) (PEDV FJZZ strain)
Test: AUC

PEDV nsp15 (H241A) (enzyme)
percentage as hexamer: 81.2%
